According to patent CN117088968A (DONGGUAN PENGZHI BIOTECHNOLOGY CO LTD, dated 2023):

B1: 抗新型冠状病毒的IgG抗体9B54 (antibody)
heavy: EVLLQQSGPELVNPGASVKIPCKASGYTFTDYNMGWVKQSHGKSLEWIGAIIPNNGGTIYNQKFKGKATLTVDESSSTAYMELRSLTSEDTAVYYCAREAYRDYDVKTWFAYWGQGTLVTVSAAKTTPPSVYPLAPGSAAQTNSMVTLGCLVKGYFPEPVTVTWNSGSLSSGVHTFPAVLQSDLYTLSSSVTVPSSTWPSETVTCNVAHPASSTKVDKKIVPRDCGCKPCICTVPEVSSVFIFPPKPKDVLTITLTPKVTCVVVDISKDDPEVQFSWFVDDVEVHTAQTQPREEQFNSTFRSVSELPIMHQDWLNGKEFKCRVNSAAFPAPIEKTISKTKGRPKAPQVYTIPPPKEQMAKDKVSLTCMITDFFPEDITVEWQWNGQPAENYKNTQPIMDTDGSYFVYSKLNVQKSNWEAGNTFTCSVLHEGLHNHHTEKSLSHSPGK
light: DLQMTQTTSSLSASLGDRVTISCSASQGIRNYLNWYQQKPDGTVKLLIYYTSTLHSGVPSRFSGSGSGTDYSLTISNLEPEDIATYFCQQYSKFPYTFGGGTKLEIKRADAAPTVSIFPPSSEQLTSGGASVVCFLNNFYPKDINVKWKIDGSERQNGVLNSWTDQDSKDSTYSMSSTLTLTKDEYERHNSYTCEATHKTSTSPIVKSFNRNEC
B2: 抗新型冠状病毒的类IgM抗体8C21 (antibody)
heavy: EVLLQQSGPELVNPGASVKIPCKASGYTFTDYNMGWVKQSHGKSLEWIGAIIPNNGGTIYNQKFKGKATLTVDESSSTAYMELRSLTSEDTAVYYCAREAYRDYDVKTWFAYWGQGTLVTVSAAKTTPPSVYPLAPGSAAQTNSMVTLGCLVKGYFPEPVTVTWNSGSLSSGVHTFPAVLQSDLYTLSSSVTVPSSTWPSETVTCNVAHPASSTKVDKKIVPRDCPAVAEMNPNVNVFVPPRDGFSGPAPRKSKLICEATNFTPKPITVSWLKDGKLVESGFTTDPVTIENKGSTPQTYKVISTLTISEIDWLNLNVYTCRVDHRGLTFLKNVSSTCAASPSTDILTFTIPPSFADIFLSKSANLTCLVSNLATYETLNISWASQSGEPLETKIKIMESHPNGTFSAKGVASVCVEDWNNRKEFVCTVTHRDLPSPQKKFISKPNEVHKHPPAVYLLPPAREQLNLRESATVTCLVKGFSPADISVQWLQRGQLLPQEKYVTSAPMPEPGAPGFYFTHSILTVTEEEWNSGETYTCVVGHEALPHLVTERTVDKSTGKPTLYNVSLIMSDTGGTCY
light: B1 light
notes: IgM-like antibody made by replacing part of the constant region of 9B54 with that of IgM

Experiments:
[1] = biological target: T1, 2019-nCoV N蛋白抗原 (2019-nCoV (新型冠状病毒), UniProt P0DTC9 1-419)
[2] = biological target: T1, 2019-nCoV N蛋白抗原; test: AMC sensor, antibody captured at 10 μg/mL, N protein antigen in serial dilution in PBST

| Binder | OD450 (ref. 630 nm) of cell supernatant diluted 1000-fold [1] | Kd [2] [nM] | koff [2] [s⁻¹] | kon [2] [M⁻¹ s⁻¹] |
| --- | --- | --- | --- | --- |
| B1 | > 1 | 0.102 | 0.000113 | 1.11e+06 |
| B2 | – | 0.031 | 6.56e-05 | 2.11e+06 |
